Consider 2 molecules from PMC11240982 (2024).

Sequences and labels used below:
B1: JT18 (antibody, V domains shown)
VH: EVQLVQSGAEVKRPGESLRISCKTSGYDFTDYWINWVRQMPGKGLEWVGMVYPSDSETAYSPSFRGRVTISADTSISTSYLQWTSLEASDTATYYCARPVSGTFALDVWGRGVLVAVSS
VL: QSVLTQPPSMSGAPGQRVTMSCTGGNSNIGANLYVQWYQQVPGTAPRLLIYEDNQRPSGVSDRFSGSRSGSSASLTITGLQSEDEADYYCQSYDNSLSTVLFGGGTRLTVL
B2: SHIV_(1157ipd3N4) V3 peptide (305KSISIGPGQAI317) (peptide)
peptide: KSISIGPGQAI

Holding throughout (assay): BLI
In general terms: BLI is a label-free optical method that tracks binding on a fibre tip over time.

In assay [1] the target is B2.
Another assay deals with J038.
In another assay the target is 447-52D.

For the molecule B1, in assay [1], the Kd (in general, a measure of binding affinity in units of concentration) was 55.3 nM. This counts as double-digit nanomolar.
Consider B2, for which the Kd amounted to 1650 nM with J038 and 55.6 nM with 447-52D.
